Results: IntAct's records for PubMed 24843043

B1: Outer mitochondrial transmembrane helix translocase (Saccharomyces cerevisiae), P28737 (parent)
chain: MSRKFDLKTITDLSVLVGTGISLYYLVSRLLNDVESGPLSGKSRESKAKQSLQWEKLVKRSPALAEVTLDAYERTILSSIVTPDEINITFQDIGGLDPLISDLHESVIYPLMMPEVYSNSPLLQAPSGVLLYGPPGCGKTMLAKALAKESGANFISIRMSSIMDKWYGESNKIVDAMFSLANKLQPCIIFIDEIDSFLRERSSTDHEVTATLKAEFMTLWDGLLNNGRVMIIGATNRINDIDDAFLRRLPKRFLVSLPGSDQRYKILSVLLKDTKLDEDEFDLQLIADNTKGFSGSDLKELCREAALDAAKEYIKQKRQLIDSGTIDVNDTSSLKIRPLKTKDFTKKLRMDATSTLSSQPLD
partner: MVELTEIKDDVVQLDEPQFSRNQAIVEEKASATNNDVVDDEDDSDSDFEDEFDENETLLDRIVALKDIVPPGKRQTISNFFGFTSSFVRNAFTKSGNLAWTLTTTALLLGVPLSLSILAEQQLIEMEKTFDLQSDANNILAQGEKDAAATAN
B2: Outer mitochondrial transmembrane helix translocase (Saccharomyces cerevisiae), P28737 (parent)
chain: B1 chain
partner: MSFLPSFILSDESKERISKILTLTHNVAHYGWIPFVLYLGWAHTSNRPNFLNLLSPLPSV

Variants of: B1
Details: with tom22_yeast TOM22, P49334

effect of a mutation on the interaction | Variant
increasing interaction | E193Q

Variants of: B2
Details: with tom7_yeast TOM7, P53507

effect of a mutation on the interaction | Variant
increasing interaction | E193Q
